Assay results published in article PMC2480485 (Journal of Biomolecular Nmr, 2008).

Columns and labels:
[1] = biological target: mouse Src SH3 domain, residues 85-142 (mouse) (UniProt P05480); assay: paramagnetic relaxation enhancement NMR
[2] = biological target: mouse Src SH3 domain, residues 85-142 (mouse) (UniProt P05480); assay: NMR titration
[3] = biological target: mouse Src SH3 domain, residues 85-142 (mouse, UniProt P05480-2 85-142); assay: NMR titration

Molecule	fraction of protein bound [1] [%]	Kd [2] [µM]	Kd [3] [µM]
peptide P3Tm (RALP-TOAC-IPKL, TOAC within the core binding motif of the FAK peptide)	44	900	
Ac-RALPSIPKL-NH2 [peptide P3 (unlabelled control peptide derived from focal adhesion kinase, RALPSIPKL)]			56 ± 11
